± gives the uncertainty stated by the source.
experiment: amyloid nucleation score (Sup35N fusion, yeast selection) (log enrichment); library NNK2; higher = more nucleation; inactive = no reads after selection
Outline: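 The nucleation score is the DiMSum log enrichment of output over input reads, centred on the mode score of non-aggregating sequences. Only sequences with 100 or more input reads were scored, using Illumina sequencing of input and output plasmid inserts. Psi-negative yeast expressing Sup35N fused to peptides of 20 random codons were induced 24 hours with 100 μM copper sulfate and grown 7 days at 30°C on medium lacking adenine and uracil.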

Compared with YSLFTT, IKLQMSLATAQIETGTHGLH is higher in amyloid nucleation score: -0.451 ± 0.76 for the first, 3.51 ± 0.16 for the second.

First: GYASTDEVMTLRMYLTSIYT
Second: NRMRVMAWCAILNKELSGGK
The amyloid nucleation score of the first is lower: -0.187 ± 0.55 for the first, 0.93 ± 0.51 for the second.

SASVHYHYDMK and DISVLSLQYMS are within error of each other in amyloid nucleation score: 0.268 ± 0.62 for the first, -0.105 ± 0.8 for the second.

MSMSHSAGDRDGWIFDHRDV and LLNFGVLGSDLSINKCNFSS are within error of each other in amyloid nucleation score: 1.46 ± 0.61 for the first, 1.89 ± 0.18 for the second.

MKFQPETVCYFRGYWLDRQY and SSSFFYTHVNHHLVLYDGKA are within error of each other in amyloid nucleation score: -0.251 ± 0.39 for the first, -0.712 ± 1.1 for the second.

First: ICQRVDCSLCGPGWCTFVEH
Second: VRFSVLRFGKLCPSGLWRVR
The amyloid nucleation score of the first is higher: 9.398 ± 0.051 for the first, 0.255 ± 1.1 for the second.

Going from YSYRVRI to SWMSGVVITETHTALGSWVN, the amyloid nucleation score falls from 3.71 ± 0.056 to 0.442 ± 0.37.

First: GMSYTLYQSWTVDHTVILPP
Second: CITVFAVINMQSAAVSCKQV
The amyloid nucleation score of the first is lower: 3.99 ± 0.12 for the first, 6.72 ± 0.07 for the second.

Going from SNCYLKRSYGFRDIITKIRY to LLLNLRQGMTKIPIGFILLI, the amyloid nucleation score falls from 1.24 ± 0.14 to -0.64 ± 0.36.

First: CLSFIILMWLDRNVGMVQI
Second: WQVYQFSCRAEGEDL
The amyloid nucleation score of the first is lower: -0.579 ± 0.49 for the first, 2.48 ± 0.12 for the second.

First: ILRSRGERISASY
Second: EFMGVSR
The amyloid nucleation score of the first is higher: 2.97 ± 0.14 for the first, 1.51 ± 0.52 for the second.

VYFELVPVGTYL and GICLSNTGRMCFG are within error of each other in amyloid nucleation score: -0.214 ± 1 for the first, 0.009 ± 0.39 for the second.

First: SRCEVNTWLLILSGGITPMN
Second: PWFMFPCRHRYRQYLWCFCA
The amyloid nucleation score of the first is lower: 0.722 ± 0.37 for the first, 2.52 ± 0.068 for the second.

Compared with WECLGTCDVGSCLTWRIGGR, KGNHRRVKTSIYNFFKVSNC is lower in amyloid nucleation score: 2.82 ± 0.18 for the first, 0.445 ± 0.29 for the second.

WTKATPH and VALRFTIMDCRIYLYSLNVF are within error of each other in amyloid nucleation score: 0.12 ± 0.29 for the first, 0.125 ± 0.79 for the second.

First: HSPYRFKSKCQRINMFCVIT
Second: CIDRFHTVPLAVHSVCGILL
The amyloid nucleation score of the first is higher: 5.713 ± 0.047 for the first, -0.319 ± 0.76 for the second.

PPDSTWYC and RLEALRCLSYITSSSLYRCP are within error of each other in amyloid nucleation score: 0.452 ± 0.53 for the first, 0.163 ± 0.41 for the second.

Compared with ESHCYSGDTWLCLCLSLVTR, DLDIC is lower in amyloid nucleation score: 8.457 ± 0.034 for the first, -0.2 ± 0.3 for the second.

YGDGGDIC and SLNAL are within error of each other in amyloid nucleation score: -0.612 ± 0.35 for the first, -0.296 ± 0.49 for the second.

Compared with IKSVRTWGSLESA, RPRRSTGCIFVDCKSKQHCI is higher in amyloid nucleation score: -0.073 ± 0.34 for the first, 2.84 ± 0.15 for the second.

Going from CKRQYHYLIWRMMEMSPGVL to DECAVPRSE, the amyloid nucleation score falls from 5.07 ± 0.058 to 0.7 ± 0.51.

RSCSFRRLSGSVETLSGWAK and YYDSYPVT are within error of each other in amyloid nucleation score: 0.35 ± 0.43 for the first, 0.013 ± 0.28 for the second.

IRAGAWLEICRSAVVSGPSF and EIYGFLVIICLLYGSLVSRW are within error of each other in amyloid nucleation score: -0.073 ± 0.33 for the first, -0.2 ± 0.45 for the second.

Going from FGVLYLDFCSIA to QFGYRCTTPC, the amyloid nucleation score falls from 3.93 ± 0.087 to 0.522 ± 0.3.

Going from YTYSHAYPRWTMFIWWHDLE to VVTRNRISRAGGLRS, the amyloid nucleation score rises from -0.378 ± 0.31 to 0.616 ± 0.39.

FVESVSEPALCIFKVSGYCS and KASMCGMKVWKFFQYLIKMV are within error of each other in amyloid nucleation score: -0.685 ± 0.79 for the first, -1.1 ± 0.61 for the second.

Compared with YQTYF, VYCEDGY is higher in amyloid nucleation score: -1.08 ± 0.41 for the first, 0.641 ± 0.36 for the second.

First: YWKGNTRIGQVLFYTLSCKT
Second: VMTIVIFGLYNY
The amyloid nucleation score of the first is lower: 0.389 ± 0.8 for the first, 2.35 ± 0.18 for the second.

First: EGRVHTSLLVVCVTHTRKYM
Second: FKFVYNVKCPYWWTLSFMEV
The amyloid nucleation score of the first is lower: -0.688 ± 0.42 for the first, 0.75 ± 0.47 for the second.

SCIMECM and DQLVLELHWTESILSYVVMP are within error of each other in amyloid nucleation score: -0.108 ± 1.1 for the first, 0.816 ± 0.48 for the second.

GRNFYESNCAMFDRYSCFGS and DFSLGLWRVTDIDYVSNVSL are within error of each other in amyloid nucleation score: 0.255 ± 1.1 for the first, 0.151 ± 0.8 for the second.

GEIAPGWEQLWDNEWGSDWA and SSIVEDGLTLLNGGNRIDGY are within error of each other in amyloid nucleation score: -0.051 ± 0.39 for the first, 0.445 ± 0.31 for the second.

Going from STARRRCYFGFGLGQSSAAI to LGLAVKSRTPDLTGGPRASE, the amyloid nucleation score rises from -0.891 ± 1.1 to 1.68 ± 0.18.

First: MFARDNRFPYCDDTRSDSSF
Second: PIGLYRSMATQVNCC
The amyloid nucleation score of the first is lower: 0.178 ± 0.45 for the first, 3.71 ± 0.094 for the second.

GRYNLLNKGNSAGVWCGLFS and YGQMVLRPFDTFVARQ are within error of each other in amyloid nucleation score: -0.324 ± 1.1 for the first, -1.05 ± 0.48 for the second.

Going from FAPSSIDFYRGSKNGLFTAQ to MRGTRACIFKRQDTSNTLNE, the amyloid nucleation score falls from -0.302 ± 0.4 to -1.42 ± 0.62.

Compared with SNVRWKRGYGDNTILGGSLT, DCDMVFFLGIFFKSSGGKGN is higher in amyloid nucleation score: 1.51 ± 0.31 for the first, 2.57 ± 0.083 for the second.

YFSFFVSKVTGGWSCHVESA and SVLMSCD are within error of each other in amyloid nucleation score: -0.004 ± 0.34 for the first, 0.135 ± 0.65 for the second.

With FRILFGFRCNLRGSSQVLIG the amyloid nucleation score was “inactive”.
In the case of LFSYDDMGALRVNMDWFYNF, the amyloid nucleation score is reported as “inactive”.
With LGYIRCLHSVSYLLFMYMLF the amyloid nucleation score was “inactive”.
In the case of TNRGCSMKRRKSINPRILGM, the amyloid nucleation score is reported as “inactive”.
In the case of TTLITVSVT, the amyloid nucleation score is reported as “inactive”.
For MSRPSSYS, the amyloid nucleation score was “inactive”.
With GYTTMRKCFAQVEFRTPADT the amyloid nucleation score was “inactive”.
With WGVCSQGYNVRIRVVARQKF the amyloid nucleation score was “inactive”.
For DRYYRISSFYFISMTKLWD, the amyloid nucleation score was “inactive”.
With RRMYMQPTKLPFYIPGRMCP the amyloid nucleation score was “inactive”.

Reference: the supplement of paper PMC12042874
